Source: US20250115953, “Methylcytosine-Selective Deaminases and Uses Thereof” (New England Biolabs, Inc., published 2025)
Read-outs that look alike come from different tables or passages of the source.

Legend:
[1] = test system: T1, F7 deaminase; details: Zn, 2-3 h
T1 sequence: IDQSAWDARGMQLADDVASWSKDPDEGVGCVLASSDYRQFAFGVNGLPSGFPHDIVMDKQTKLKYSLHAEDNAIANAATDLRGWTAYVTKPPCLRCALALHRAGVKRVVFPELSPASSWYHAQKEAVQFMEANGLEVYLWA

[2] = test system: T2, B5 deaminase; details: Zn, 2-3 h
T2 sequence: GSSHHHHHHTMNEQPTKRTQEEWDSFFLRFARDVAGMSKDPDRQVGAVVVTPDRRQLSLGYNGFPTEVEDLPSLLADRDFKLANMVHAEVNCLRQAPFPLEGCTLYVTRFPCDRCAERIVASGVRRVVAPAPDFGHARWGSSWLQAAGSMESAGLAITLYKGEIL

[3] = test system: T3, E10 deaminase; details: 2-3 h
T3 sequence: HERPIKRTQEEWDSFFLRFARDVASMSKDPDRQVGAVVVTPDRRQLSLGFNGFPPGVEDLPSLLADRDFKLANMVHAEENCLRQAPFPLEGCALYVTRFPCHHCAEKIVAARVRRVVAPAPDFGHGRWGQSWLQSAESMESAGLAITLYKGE

[4] = test system: B4 deaminase; details: 5mC at position 17; solid support, overnight
[5] = test system: T4, PBCV-1 deaminase (Paramecium bursaria chlorella virus 1?); details: overnight
T4 sequence: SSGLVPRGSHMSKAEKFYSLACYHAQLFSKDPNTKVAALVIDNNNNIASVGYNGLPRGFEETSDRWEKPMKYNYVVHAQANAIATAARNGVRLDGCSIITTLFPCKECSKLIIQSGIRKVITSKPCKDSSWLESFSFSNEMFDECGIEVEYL

[6] = test system: T2, B5 deaminase; details: LC/MS
[7] = test system: T2, B5 deaminase
[8] = test system: APOBEC
[9] = test system: T2, B5 deaminase; details: 30 C 12 h, 6 uM enzyme
[10] = test system: T1, F7 deaminase; details: all C replaced by 5mC; most preferred motif GTCAG; least GGCCG 5.51%
[11] = test system: T2, B5 deaminase; details: all C replaced by 5mC; most preferred motif ATCAA; least GGCCC 22.51%
[12] = test system: T3, E10 deaminase; details: all C replaced by 5mC; most preferred motif ATCAA; least GGCGC 11.58%
[13] = test system: T5, H3 deaminase; details: all C replaced by 5mC; most preferred motif AACTT; least GGCCC 1.28%
T5 sequence: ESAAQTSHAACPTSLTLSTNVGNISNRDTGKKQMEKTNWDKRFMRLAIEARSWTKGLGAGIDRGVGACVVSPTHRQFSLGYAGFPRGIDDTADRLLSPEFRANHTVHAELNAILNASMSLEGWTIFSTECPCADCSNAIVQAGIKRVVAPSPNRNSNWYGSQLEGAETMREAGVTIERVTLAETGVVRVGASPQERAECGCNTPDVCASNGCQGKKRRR

[14] = test system: T6, G12 deaminase; details: all C replaced by 5mC; most preferred motif TACGG; least GCCCC 0.90%
T6 sequence: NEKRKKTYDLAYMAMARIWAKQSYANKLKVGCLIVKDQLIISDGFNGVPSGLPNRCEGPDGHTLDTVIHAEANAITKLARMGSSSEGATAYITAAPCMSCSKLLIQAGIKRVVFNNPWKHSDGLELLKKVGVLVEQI

[15] = biological target: T7, PRW294; assay: 1 h; details: label: 5'-FAM
T7 chain: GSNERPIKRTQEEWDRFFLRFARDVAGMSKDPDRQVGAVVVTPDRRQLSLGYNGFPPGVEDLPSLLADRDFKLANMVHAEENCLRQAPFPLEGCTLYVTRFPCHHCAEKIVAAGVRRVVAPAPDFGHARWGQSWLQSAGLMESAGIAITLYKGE

[16] = biological target: T8, PRW313; assay: 1 h; details: label: 5'-FAM
T8 chain: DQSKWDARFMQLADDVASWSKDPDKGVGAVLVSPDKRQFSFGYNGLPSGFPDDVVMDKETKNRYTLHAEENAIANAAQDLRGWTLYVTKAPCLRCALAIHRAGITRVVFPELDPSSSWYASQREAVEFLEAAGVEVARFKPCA

[17] = biological target: T9, PRW311; assay: 1 h; details: label: 5'-FAM
T9 chain: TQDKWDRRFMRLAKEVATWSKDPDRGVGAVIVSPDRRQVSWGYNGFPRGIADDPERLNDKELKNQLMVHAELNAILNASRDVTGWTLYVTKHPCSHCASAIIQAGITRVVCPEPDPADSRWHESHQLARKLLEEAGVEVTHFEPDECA

[18] = biological target: T10, PRW314; assay: 1 h; details: label: 5'-FAM
T10 chain: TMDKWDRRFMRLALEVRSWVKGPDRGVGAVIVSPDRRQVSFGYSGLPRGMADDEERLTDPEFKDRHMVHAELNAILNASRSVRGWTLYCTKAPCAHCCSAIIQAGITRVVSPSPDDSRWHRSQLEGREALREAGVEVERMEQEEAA

[19] = biological target: T11, 251 deaminase; assay: solid support, overnight; details: tags: immobilized on solid support; label: 5'-FAM
T11 chain: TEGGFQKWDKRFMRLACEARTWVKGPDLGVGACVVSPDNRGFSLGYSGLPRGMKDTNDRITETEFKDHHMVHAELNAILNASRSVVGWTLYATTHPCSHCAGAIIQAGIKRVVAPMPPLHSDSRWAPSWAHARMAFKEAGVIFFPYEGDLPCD

[20] = biological target: T12, F12 deaminase; assay: solid support, overnight; details: tags: immobilized on solid support; label: 5'-FAM
T12 chain: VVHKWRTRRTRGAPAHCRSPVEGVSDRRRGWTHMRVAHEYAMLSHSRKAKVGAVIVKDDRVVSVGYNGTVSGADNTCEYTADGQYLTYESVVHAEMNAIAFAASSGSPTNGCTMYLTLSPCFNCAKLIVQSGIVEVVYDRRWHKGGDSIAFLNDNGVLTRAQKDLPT

[21] = biological target: T13, 206 deaminase; assay: solid support, overnight; details: tags: immobilized on solid support; label: 5'-FAM
T13 chain: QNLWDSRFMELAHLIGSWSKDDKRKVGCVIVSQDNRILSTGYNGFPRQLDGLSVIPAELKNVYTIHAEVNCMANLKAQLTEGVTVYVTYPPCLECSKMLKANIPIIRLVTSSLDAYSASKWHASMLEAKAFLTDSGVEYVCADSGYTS

[22] = biological target: T14, E12 deaminase; assay: solid support, overnight; details: tags: immobilized on solid support; label: 5'-FAM
T14 chain: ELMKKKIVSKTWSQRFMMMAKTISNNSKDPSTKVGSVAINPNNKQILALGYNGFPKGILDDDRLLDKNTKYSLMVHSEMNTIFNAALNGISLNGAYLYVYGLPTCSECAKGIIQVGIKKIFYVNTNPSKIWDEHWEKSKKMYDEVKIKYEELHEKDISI

[23] = biological target: T15, 252 deaminase; assay: solid support, overnight; details: tags: immobilized on solid support; label: 5'-FAM
T15 chain: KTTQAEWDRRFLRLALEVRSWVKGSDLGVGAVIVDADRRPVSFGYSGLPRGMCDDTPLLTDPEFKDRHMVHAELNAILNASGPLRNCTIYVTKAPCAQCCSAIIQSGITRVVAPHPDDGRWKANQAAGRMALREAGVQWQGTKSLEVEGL

[24] = biological target: T16, G10 deaminase; assay: solid support, overnight; details: tags: immobilized on solid support; label: 5'-FAM
T16 chain: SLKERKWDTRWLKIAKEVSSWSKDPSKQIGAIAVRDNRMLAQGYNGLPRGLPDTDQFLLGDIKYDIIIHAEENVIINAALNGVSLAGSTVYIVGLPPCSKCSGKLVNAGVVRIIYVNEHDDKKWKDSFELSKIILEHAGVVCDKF

[25] = biological target: T17, H2 deaminase; assay: solid support, overnight; details: tags: immobilized on solid support; label: 5'-FAM
T17 chain: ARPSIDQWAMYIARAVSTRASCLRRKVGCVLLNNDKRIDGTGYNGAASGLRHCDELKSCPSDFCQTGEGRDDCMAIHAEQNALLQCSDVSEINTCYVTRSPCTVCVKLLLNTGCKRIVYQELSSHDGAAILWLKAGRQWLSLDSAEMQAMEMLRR

For “ATACACCGATGCAGAACTCATGGGCTTACGC [FAM 5mC oligo 1]”, the activity (% deamination) ([1]; 5mC at position 17) was 72, the activity (% deamination) ([2]; 5mC at position 17, EcoRI/CE assay, 42 C, Bis-Tris pH 6.5, 36% in FIG. 7B and when on Ni beads) was 74 and the activity (% deamination) ([3]; 5mC at position 17, highest measured (6-7% in FIG. 7C/D)) was 54. The activity (% deamination) [4] was 3 and the activity (% deamination) ([5]; 5mC at position 17, 42 C, Bis-Tris pH 6.5) was 51.

For ssDNA oligo C (Table 6), the activity (% deamination) ([6]; average) was 2.

ssDNA oligo with 5fC (Table 6) showed an activity (% deamination) ([6]; 5fC) of 2.

XP12 genomic DNA, native gave an activity (% deamination) ([7]; all C replaced by 5mC, not denatured) of 4.

For ssDNA oligo with 5caC (Table 6), the activity (% deamination) ([6]; 5caC) was 2.

“TGTCCGATAGACTCTACGCA [5mC-oligo (Oligo 2)]” was tested, and the activity ([8]; 5mC at position 14, unmodified C 94.1%) was 100 % 5mC to T and the activity ([9]; 5mC at position 14, unmodified C 2.80%) was 21.1 % 5mC to T.

Work on ssDNA oligo with 5mC (Table 6) yielded an activity (% deamination) ([6]; 5mC) of 53.

lambda genomic DNA, native showed an activity (% deamination) ([7]; not denatured) of 3.

For “ATACACCGATGCAGAACTCATGGGCTTACGC [FAM C oligo 4]”, the activity (% deamination) [1] was 12, the activity (% deamination) [2] was 4 and the activity (% deamination) [3] was 3. For the same molecule, the activity (% deamination) [5] was 7.

With T4gt genomic DNA, native the activity (% deamination) ([7]; all C replaced by 5hmC, not denatured) was 9.

In the case of T4gt genomic DNA, denatured, the activity (% deamination) ([7]; all C replaced by 5hmC, NaOH and heat denatured) is reported as 27.

In the case of T4 genomic DNA, native, the activity (% deamination) ([7]; 5gmC (glucosylated 5hmC), not denatured) is reported as 3.

XP12 genomic DNA, denatured was tested, and the activity (% deamination) ([7]; all C replaced by 5mC, NaOH and heat denatured) was 35, the activity (% deamination) [10] was 22 and the activity (% deamination) [11] was 74.6. The activity (% deamination) [12] was 40.9, the activity (% deamination) [13] was 11.3 and the activity (% deamination) [14] was 12.7.

Work on ssDNA oligo with 5gmC (Table 6) yielded an activity (% deamination) ([6]; 5gmC) of 2.

For T4 genomic DNA, denatured, the activity (% deamination) ([7]; 5gmC (glucosylated 5hmC), NaOH and heat denatured) was 6.

With ssDNA oligo with 5hmC (Table 6) the activity (% deamination) ([6]; 5hmC) was 36.

For lambda genomic DNA, denatured, the activity (% deamination) ([7]; NaOH and heat denatured) was 6.

In the case of “TGTCCGATAGACTCTACGCA [5hmC-oligo (Oligo 1)]”, the activity (% 5hmC to 5hmU) ([8]; 5hmC at position 14, unmodified C 100%) is reported as 100 and the activity (% 5hmC to 5hmU) ([9]; 5hmC at position 14, DpnII buffer, LC/MS, unmodified C 0.90%) is reported as 35.

In the case of ATACACCGATGCAGAACTCATGGGCTTACGC (ssDNA, 5mC at position 17) [FAM 5mC oligo 1], the activity [15] is reported as 73 % deamination, the activity [16] is reported as 90 % deamination and the activity [17] is reported as 69 % deamination. It also gave an activity [18] of 90 % deamination, an activity [19] of 66 % deamination and an activity [20] of 10 % deamination. For the same molecule, the activity [21] was 50 % deamination, the activity [22] was 5 % deamination and the activity [23] was 12 % deamination. The activity [24] was 4.5 % deamination and the activity [25] was 7 % deamination.

In the case of ATACACCGATGCAGAACTCATGGGCTTACGC (ssDNA) [FAM C oligo 4], the activity [16] is reported as 11 % deamination, the activity [18] is reported as 13 % deamination and the activity [24] is reported as 2.6 % deamination.
